Results on two molecules are retold here after publication PMC6561738 (Science Advances, 2019).

The series “atomic force microscopy” deals with the molecule itself. Kind of series: atomic force microscopy.
A further series deals with SecA (wild type) (E. coli, UniProt P10408 1-901). The experiment in a line: atomic force microscopy.

B1: SecAC4Q801C, cross-linked dimeric species (SecA C98S, C885S, C887S, C896S, Q801C) (enzyme)
chain: MLIKLLTKVFGSRNDRTLRRMRKVVNIINAMEPEMEKLSDEELKGKTAEFRARLEKGEVLENLIPEAFAVVREASKRVFGMRHFDVQLLGGMVLNERSIAEMRTGEGKTLTATLPAYLNALTGKGVHVVTVNDYLAQRDAENNRPLFEFLGLTVGINLPGMPAPAKREAYAADITYGTNNEYGFDYLRDNMAFSPEERVQRKLHYALVDEVDSILIDEARTPLIISGPAEDSSEMYKRVNKIIPHLIRQEKEDSETFQGEGHFSVDEKSRQVNLTERGLVLIEELLVKEGIMDEGESLYSPANIMLMHHVTAALRAHALFTRDVDYIVKDGEVIIVDEHTGRTMQGRRWSDGLHQAVEAKEGVQIQNENQTLASITFQNYFRLYEKLAGMTGTADTEAFEFSSIYKLDTVVVPTNRPMIRKDLPDLVYMTEAEKIQAIIEDIKERTAKGQPVLVGTISIEKSELVSNELTKAGIKHNVLNAKFHANEAAIVAQAGYPAAVTIATNMAGRGTDIVLGGSWQAEVAALENPTAEQIEKIKADWQVRHDAVLEAGGLHIIGTERHESRRIDNQLRGRSGRQGDAGSSRFYLSMEDALMRIFASDRVSGMMRKLGMKPGEAIEHPWVTKAIANAQRKVESRNFDIRKQLLEYDDVANDQRRAIYSQRNELLDVSDVSETINSIREDVFKATIDAYIPPQSLEEMWDIPGLQERLKNDFDLDLPIAEWLDKEPELHEETLRERILAQSIEVYQRKEEVVGAEMMRHFEKGVMLQTLDSLWKEHLAAMDYLRQGIHLRGYAQKDPKCEYKRESFSMFAAMLESLKYEVISTLSKVQVRMPEEVEELEQQRRMEAERLAQMQQLSHQDDDSAAAAALAAQTGERKVGRNDPSPSGSGKKYKQSHGRLQ
modifications: cross-linked dimer (so in the source); the chemistry of the cross-link is not told
With B1, the binding result in the series “atomic force microscopy” is on record as “binds”.

B2: SecYEG translocon (SecY C329S, C385S; His-tagged SecE; SecG) (complex)
chain 1: MAKQPGLDFQSAKGGLGELKRRLLFVIGALIVFRIGSFIPIPGIDAAVLAKLLEQQRGTIIEMFNMFSGGALSRASIFALGIMPYISASIIIQLLTVVHPTLAEIKKEGESGRRKISQYTRYGTLVLAIFQSIGIATGLPNMPGMQGLVINPGFAFYFTAVVSLVTGTMFLMWLGEQITERGIGNGISIIIFAGIVAGLPPAIAHTIEQARQGDLHFLVLLLVAVLVFAVTFFVVFVERGQRRIVVNYAKRQQGRRVYAAQSTHLPLKVNMAGVIPAIFASSIILFPATIASWFGGGTGWNWLTTISLYLQPGQPLYVLLYASAIIFFSFFYTALVFNPRETADNLKKSGAFVPGIRPGEQTAKYIDKVMTRLTLVGALYITFISLIPEFMRDAMKVPFYFGGTSLLIVVVVIMDFMAQVQTLMMSSQYESALKKANLKGYGR
chain 2: MSANTEAQGSGRGLEAMKWVVVVALLLVAIVGNYLYRDIMLPLRALAVVILIAAAGGVALLTTKGKATVAFAREARTEVRKVIWPTRQETLHTTLIVAAVTAVMSLILWGLDGILVRLVSFITGLRF
chain 3: MYEALLVVFLIVAIGLVGLIMLQQGKGADMGASFGAGASATLFGSSGSGNFMTRMTALLATLFFIISLVLGNINSNKTNKGSEWENLSAPAKTEQTQPAAPAKPTSDIPN
On to B2, for which, in the series with SecA (wild type), the binding result is given as “binds”.
